Article PMC9887155, “Kinetics of cone specific G-protein signaling in avian photoreceptor cells” (Frontiers in Molecular Neuroscience, 2023)
Values joined by “and” are separate entries in the source; they are usually repeats but may differ in a detail not shown here. Equal values may be shown once. Read-outs that look alike come from different tables or passages of the source. Ends that are not written are not given here.

Experiments:
[1] = molecular target: Gtα/Giα chimera (α-subunit of the cone specific heterotrimeric G protein of European robin, chimera with Giα) (European robin (Erithacus rubecula)); experiment: FRET or BRET; in solution: intrinsic Trp (excitation 280 nm) to dansyl on the peptide, emission 400–550 nm; peptide and Gtα/Giα each 16.7 μM; 80 mM Hepes pH 7.4, 40 mM KCl, 150 mM NaCl, 10 mM MgCl2, 10 μM GDP; 30 min on ice
[2] = molecular target: Gtα/Giα with a C-terminus truncated by three amino acids (European robin (Erithacus rubecula)); experiment: SPR; Gt-3AA or Gt-6AA immobilised on CM5 (3.1–4.2 ng/mm^2); LWO2 injected at 120 nM (Gt-3AA) or 100 nM (Gt-6AA); global fit, Langmuir 1:1 model; apparent KD; three sets each
[3] = molecular target: Gtα/Giα with a C-terminus truncated by six amino acids (European robin (Erithacus rubecula)); experiment: as above
[4] = molecular target: Gtα/Giα chimera (α-subunit of the cone specific heterotrimeric G protein of European robin, chimera with Giα) (European robin (Erithacus rubecula)); experiment: SPR; kinetics: Gtα/Giα immobilised on CM5 (2.6–3.4 ng/mm^2); LWO2 injected at 5 to 150 nM in random order; global fit, Langmuir 1:1 model; apparent KD from kd/ka; 12 sets; same running buffer
[5] = molecular target: Gtα/Giα with a C-terminus truncated by three amino acids (European robin (Erithacus rubecula)); experiment: SPR; Gt-3AA or Gt-6AA immobilised on CM5 (3.1–4.2 ng/mm^2); LWO2 injected at 120 nM (Gt-3AA) or 100 nM (Gt-6AA); global fit, Langmuir 1:1 model; apparent KD; three sets each; remark: listed apart in the source
[6] = molecular target: Gtα/Giα with a C-terminus truncated by six amino acids (European robin (Erithacus rubecula)); experiment: as above; remark: listed apart in the source

| decrease of dansyl fluorescence emission (FRET) on adding Gtα/Giα (relative fluorescence counts) [1] | Kd [2] [nM] | koff [2] [s⁻¹] | kon [2] [M⁻¹ s⁻¹] | Kd [3] [nM] | koff [3] [s⁻¹] | kon [3] [M⁻¹ s⁻¹] | Kd [4] | koff [4] [s⁻¹] | kon [4] [M⁻¹ s⁻¹] | Kd [5] [nM] | Kd [6] [nM] | Binder |
| --- | --- | --- | --- | --- | --- | --- | --- | --- | --- | --- | --- | --- |
| 14000 | – | – | – | – | – | – | – | – | – | – | – | CGAGAWERWFVVCKPFGNIKFDGK-NH2 (cysteine pairing not given here; also: dansyl coupled to free amino groups) [dansylated peptide LWO2] |
| – | 8.7 | 0.000937 | 108000 | 50 | 0.00093 | 18600 | 15.1 nM and 21.4 nM and 3 to 41 nM | 0.000812 | 53600 | 7.3 | 34.5 | CGAGAWERWFVVCKPFGNIKFDGK-NH2 (cysteine pairing not given here) [peptide LWO2 (second cytoplasmic loop of long-wavelength-sensitive opsin of European robin)] |
